Test results reported in publication PMC4782060, “Mechanism of intermediate filament recognition by plakin repeat domains revealed by envoplakin targeting of vimentin” (Nature Communications, 2016).

T1: wild-type human envoplakin plakin repeat domain (PRD), residues Asp1822-Ala2014 (human, UniProt Q92817 1822-2014)
T1 construct: envoplakin, human, plakin repeat domain, residues Asp1822-Ala2014; vector pProEX-HTC; also called envoplakin PRD; WT; source: E. coli BL21(DE3), purified (HisTrap, TEV cleavage, S75 size exclusion)
T1 sequence (looked up): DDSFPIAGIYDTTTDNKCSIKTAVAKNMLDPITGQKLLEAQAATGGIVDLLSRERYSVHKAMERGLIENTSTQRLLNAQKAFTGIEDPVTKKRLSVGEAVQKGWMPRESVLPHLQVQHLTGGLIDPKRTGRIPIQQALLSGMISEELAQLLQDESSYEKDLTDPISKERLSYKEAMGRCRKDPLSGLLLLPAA

T2: envoplakin PRD K2002E (control mutation) (human, UniProt Q92817 1822-2014, K2002E)
T2 construct: envoplakin, human, plakin repeat domain, residues Asp1822-Ala2014, mutant K2002E; 15N-labelled for NMR; source: E. coli BL21(DE3), purified (HisTrap, TEV cleavage, S75 size exclusion)
T2 sequence (looked up): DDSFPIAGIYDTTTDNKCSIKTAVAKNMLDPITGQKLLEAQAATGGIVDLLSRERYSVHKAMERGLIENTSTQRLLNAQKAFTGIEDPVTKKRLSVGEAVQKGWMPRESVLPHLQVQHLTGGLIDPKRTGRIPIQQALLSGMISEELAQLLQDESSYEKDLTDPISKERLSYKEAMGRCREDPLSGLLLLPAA

B1: envoplakin PRD K1901E (domain or fragment, human, UniProt Q92817 1822-2014, looked up)
chain: DDSFPIAGIYDTTTDNKCSIKTAVAKNMLDPITGQKLLEAQAATGGIVDLLSRERYSVHKAMERGLIENTSTQRLLNAQEAFTGIEDPVTKKRLSVGEAVQKGWMPRESVLPHLQVQHLTGGLIDPKRTGRIPIQQALLSGMISEELAQLLQDESSYEKDLTDPISKERLSYKEAMGRCRKDPLSGLLLLPAA
notes: envoplakin, human, plakin repeat domain, residues Asp1822-Ala2014, mutant K1901E; 15N-labelled for NMR; source: E. coli BL21(DE3), purified (HisTrap, TEV cleavage, S75 size exclusion)
B2: envoplakin PRD K1847E (control mutation) (domain or fragment, human, UniProt Q92817 1822-2014, looked up)
chain: DDSFPIAGIYDTTTDNKCSIKTAVAENMLDPITGQKLLEAQAATGGIVDLLSRERYSVHKAMERGLIENTSTQRLLNAQKAFTGIEDPVTKKRLSVGEAVQKGWMPRESVLPHLQVQHLTGGLIDPKRTGRIPIQQALLSGMISEELAQLLQDESSYEKDLTDPISKERLSYKEAMGRCRKDPLSGLLLLPAA
notes: envoplakin, human, plakin repeat domain, residues Asp1822-Ala2014, mutant K1847E; 15N-labelled for NMR; source: E. coli BL21(DE3), purified (HisTrap, TEV cleavage, S75 size exclusion)
B3: envoplakin PRD R1914E (domain or fragment, human, UniProt Q92817 1822-2014, looked up)
chain: DDSFPIAGIYDTTTDNKCSIKTAVAKNMLDPITGQKLLEAQAATGGIVDLLSRERYSVHKAMERGLIENTSTQRLLNAQKAFTGIEDPVTKKELSVGEAVQKGWMPRESVLPHLQVQHLTGGLIDPKRTGRIPIQQALLSGMISEELAQLLQDESSYEKDLTDPISKERLSYKEAMGRCRKDPLSGLLLLPAA
notes: envoplakin, human, plakin repeat domain, residues Asp1822-Ala2014, mutant R1914E; 15N-labelled for NMR; also called K1914E (as printed once in the text); source: E. coli BL21(DE3), purified (HisTrap, TEV cleavage, S75 size exclusion)

Tests used:
Conditions in all cases: both partners purified
[1] = biological target: T3, full-length human vimentin (residues Met1-Glu466) (human, UniProt P08670 1-466); experiment: NMR titration; unlabelled full-length vimentin (10, 50, 100, 200 μM) added to 100 μM 15N-labelled wild-type or mutant envoplakin PRD; 1H,15N HSQC peak intensities; 20 mM Tris-Cl, pH 7, 1 mM DTT, no salt, 298 K
T3 construct: vimentin, human, residues Met1-Glu466; Vector pET21a+; also called vimentin^FL; full-length vimentin

[2] = biological target: T1, wild-type human envoplakin plakin …; experiment: SPR; His-tagged vimentin^ROD (wild type or mutant) immobilised on nickel-coated chips, Biacore 3000; envoplakin PRD 0-100 μM flowed over; 150 mM NaCl, 10 mM Hepes, 3 mM EDTA, 0.005% Surfactant P20, pH 7.4
[3] = biological target: B3; experiment: as above
[4] = biological target: T2, envoplakin PRD K2002E (control mutation); experiment: as above
[5] = biological target: B2; experiment: as above
[6] = biological target: B1; experiment: as above

T3 sequence (P08670 whole entry, the tested form may be a part): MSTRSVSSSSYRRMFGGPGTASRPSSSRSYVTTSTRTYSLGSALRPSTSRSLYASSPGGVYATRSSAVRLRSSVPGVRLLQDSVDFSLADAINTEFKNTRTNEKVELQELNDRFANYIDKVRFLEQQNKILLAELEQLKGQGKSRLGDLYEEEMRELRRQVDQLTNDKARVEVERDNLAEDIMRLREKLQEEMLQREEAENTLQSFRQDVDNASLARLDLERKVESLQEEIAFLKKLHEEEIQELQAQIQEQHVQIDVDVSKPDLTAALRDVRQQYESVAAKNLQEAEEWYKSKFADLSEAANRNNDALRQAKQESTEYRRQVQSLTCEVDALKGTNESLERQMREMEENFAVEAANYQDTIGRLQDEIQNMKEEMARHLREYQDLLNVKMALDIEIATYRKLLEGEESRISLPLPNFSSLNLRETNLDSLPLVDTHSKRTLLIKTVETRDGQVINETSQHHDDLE

| binding result [1] | Kd [2] | Binder | also measured |
| --- | --- | --- | --- |
| binds |  | envoplakin PRD R1895E (domain or fragment, human, UniProt Q92817 1822-2014, looked up, envoplakin, human, plakin repeat domain, residues Asp1822-Ala2014, mutant R1895E; 15N-labelled for NMR; source: E. coli BL21(DE3), purified (HisTrap, TEV cleavage, S75 size exclusion)) DDSFPIAGIYDTTTDNKCSIKTAVAKNMLDPITGQKLLEAQAATGGIVDLLSRERYSVHKAMERGLIENTSTQELLNAQKAFTGIEDPVTKKRLSVGEAVQKGWMPRESVLPHLQVQHLTGGLIDPKRTGRIPIQQALLSGMISEELAQLLQDESSYEKDLTDPISKERLSYKEAMGRCRKDPLSGLLLLPAA |  |
| binds |  | envoplakin PRD K1994E (domain or fragment, human, UniProt Q92817 1822-2014, looked up, envoplakin, human, plakin repeat domain, residues Asp1822-Ala2014, mutant K1994E; 15N-labelled for NMR; source: E. coli BL21(DE3), purified (HisTrap, TEV cleavage, S75 size exclusion)) DDSFPIAGIYDTTTDNKCSIKTAVAKNMLDPITGQKLLEAQAATGGIVDLLSRERYSVHKAMERGLIENTSTQRLLNAQKAFTGIEDPVTKKRLSVGEAVQKGWMPRESVLPHLQVQHLTGGLIDPKRTGRIPIQQALLSGMISEELAQLLQDESSYEKDLTDPISKERLSYEEAMGRCRKDPLSGLLLLPAA |  |
| binds |  | envoplakin PRD K1988E (control mutation) (domain or fragment, human, UniProt Q92817 1822-2014, looked up, envoplakin, human, plakin repeat domain, residues Asp1822-Ala2014, mutant K1988E; 15N-labelled for NMR; source: E. coli BL21(DE3), purified (HisTrap, TEV cleavage, S75 size exclusion)) DDSFPIAGIYDTTTDNKCSIKTAVAKNMLDPITGQKLLEAQAATGGIVDLLSRERYSVHKAMERGLIENTSTQRLLNAQKAFTGIEDPVTKKRLSVGEAVQKGWMPRESVLPHLQVQHLTGGLIDPKRTGRIPIQQALLSGMISEELAQLLQDESSYEKDLTDPISEERLSYKEAMGRCRKDPLSGLLLLPAA |  |
| binds |  | B1 |  |
| binds |  | envoplakin PRD R1952A (domain or fragment, human, UniProt Q92817 1822-2014, looked up, envoplakin, human, plakin repeat domain, residues Asp1822-Ala2014, mutant R1952A; 15N-labelled for NMR; source: E. coli BL21(DE3), purified (HisTrap, TEV cleavage, S75 size exclusion)) DDSFPIAGIYDTTTDNKCSIKTAVAKNMLDPITGQKLLEAQAATGGIVDLLSRERYSVHKAMERGLIENTSTQRLLNAQKAFTGIEDPVTKKRLSVGEAVQKGWMPRESVLPHLQVQHLTGGLIDPKRTGAIPIQQALLSGMISEELAQLLQDESSYEKDLTDPISKERLSYKEAMGRCRKDPLSGLLLLPAA |  |
| binds |  | B2 |  |
| binds |  | envoplakin PRD R1990E (control mutation) (domain or fragment, human, UniProt Q92817 1822-2014, looked up, envoplakin, human, plakin repeat domain, residues Asp1822-Ala2014, mutant R1990E; 15N-labelled for NMR; source: E. coli BL21(DE3), purified (HisTrap, TEV cleavage, S75 size exclusion)) DDSFPIAGIYDTTTDNKCSIKTAVAKNMLDPITGQKLLEAQAATGGIVDLLSRERYSVHKAMERGLIENTSTQRLLNAQKAFTGIEDPVTKKRLSVGEAVQKGWMPRESVLPHLQVQHLTGGLIDPKRTGRIPIQQALLSGMISEELAQLLQDESSYEKDLTDPISKEELSYKEAMGRCRKDPLSGLLLLPAA |  |
| binds |  | B3 |  |
|  | 106 ± 45.6 µM | vimentin^ROD D112K (domain or fragment, vimentin, human, rod residues 99-249, mutant D112K) not shown |  |
|  | 1500 ± 139 µM | vimentin^ROD double mutant D112K/D119K (domain or fragment, vimentin, human, rod residues 99-249, double mutant D112K/D119K) not shown |  |
|  | 48.4 ± 5.5 µM | vimentin^ROD D119K (domain or fragment, vimentin, human, rod residues 99-249, mutant D119K) not shown |  |
|  | 19.1 ± 1.3 µM | vimentin^ROD construct, vimentin residues 99-249 (coils 1A and 1B of the central rod domain) (domain or fragment, vimentin, human, rod residues 99-249, coils 1A and 1B; Vector pET21a+; His tag retained for SPR; also called WT; envoplakin^ROD (as printed once in the text)) not shown | Kd [3]: 132 ± 34.7 µM; Kd [4]: 14.5 ± 0.4 µM; Kd [5]: 26.5 ± 2 µM; Kd [6]: 69.3 ± 10.6 µM |
